To fix the notation:
B1: Centriole and centriolar satellite protein OFD1 (Homo sapiens), O75665 (parent)
chain: MMAQSNMFTVADVLSQDELRKKLYQTFKDRGILDTLKTQLRNQLIHELMHPVLSGELQPRSISVEGSSLLIGASNSLVADHLQRCGYEYSLSVFFPESGLAKEKVFTMQDLLQLIKINPTSSLYKSLVSGSDKENQKGFLMHFLKELAEYHQAKESCNMETQTSSTFNRDSLAEKLQLIDDQFADAYPQRIKFESLEIKLNEYKREIEEQLRAEMCQKLKFFKDTEIAKIKMEAKKKYEKELTMFQNDFEKACQAKSEALVLREKSTLERIHKHQEIETKEIYAQRQLLLKDMDLLRGREAELKQRVEAFELNQKLQEEKHKSITEALRRQEQNIKSFEETYDRKLKNELLKYQLELKDDYIIRTNRLIEDERKNKEKAVHLQEELIAINSKKEELNQSVNRVKELELELESVKAQSLAITKQNHMLNEKVKEMSDYSLLKEEKLELLAQNKLLKQQLEESRNENLRLLNRLAQPAPELAVFQKELRKAEKAIVVEHEEFESCRQALHKQLQDEIEHSAQLKAQILGYKASVKSLTTQVADLKLQLKQTQTALENEVYCNPKQSVIDRSVNGLINGNVVPCNGEISGDFLNNPFKQENVLARMVASRITNYPTAWVEGSSPDSDLEFVANTKARVKELQQEAERLEKAFRSYHRRVIKNSAKSPLAAKSPPSLHLLEAFKNITSSSPERHIFGEDRVVSEQPQVGTLEERNDVVEALTGSAASRLRGGTSSRRLSSTPLPKAKRSLESEMYLEGLGRSHIASPSPCPDRMPLPSPTESRHSLSIPPVSSPPEQKVGLYRRQTELQDKSEFSDVDKLAFKDNEEFESSFESAGNMPRQLEMGGLSPAGDMSHVDAAAAAVPLSYQHPSVDQKQIEEQKEEEKIREQQVKERRQREERRQSNLQEVLERERRELEKLYQERKMIEESLKIKIKKELEMENELEMSNQEIKDKSAHSENPLEKYMKIIQQEQDQESADKSSKKMVQEGSLVDTLQSSDKVESLTGFSHEELDDSW

Experimental findings from IntAct's records for PubMed 33368531 are described below.

The first assay covers variants of B1. Conditions: with gbrap_human GABARAP.
For the variant Y961A;I964A, the “effect of a mutation on the interaction” value is “disrupting interaction”.

In the next assay the parent is B1. Conditions: with mlp3b_human MAP1LC3B.
On to Y961A;I964A, for which the “effect of a mutation on the interaction” value is reported as “disrupting interaction”.

In a further assay the parent is B1. The settings on record: with gbrap_human GABARAP. The source holds these as a separate data set.
In the case of Y961A;I964A, the “effect of a mutation on the interaction” value is listed as “disrupting interaction”.
